Results on 2 compounds are retold here after article PMC5154385 (ACS infectious diseases, 2015).

One data set addresses Eis_Mab2 (Mycobacteroides abscessus, UniProt B1MKV6). The data set can be described thus: DTNB. Type of data set: biochemical.
The subject of data set [1] is NC[C@@H]1O[C@H](O[C@H]2[C@@H](O)[C@H](O[C@@H]3[C@@H](O)[C@H](N)C[C@H](N)[C@H]3O[C@H]3O[C@H](CO)[C@@H](O)[C@H](O)[C@H]3N)O[C@@H]2CO)[C@H](N)[C@@H](O)[C@@H]1O. The data set can be described thus: purified protein. As to conditions: co-substrate AcCoA fixed (printed 0.5 μM), pH 8.0, 25 °C.
For data set [2], the system named is NC[C@H]1O[C@H](O[C@H]2[C@H](O)[C@@H](O[C@H]3O[C@H](CO)[C@@H](O)[C@H](N)[C@H]3O)[C@H](N)C[C@@H]2N)[C@H](O)[C@@H](O)[C@@H]1O. As to the kind of experiment: purified protein. As to conditions: co-substrate AcCoA fixed (printed 0.5 μM), pH 8.0, 25 °C.

Take `[H]/N=C(\N/C(=N/[H])NCCCCCCNC(=N)NC(=N)Nc1ccc(Cl)cc1)Nc1ccc(Cl)cc1` [chlorhexidine]: half-maximal inhibition at Eis_Mab2 (IC50) required 4.4 ± 0.9 µM.

In the case of “Eis_Mab2 (Mycobacteroides abscessus ATCC 19977)”, in data set [1], the Km is 144 ± 14 µM, the kcat was 2.83 ± 0.07 s⁻¹ and the kcat/Km stood at 19700 ± 1970 M⁻¹ s⁻¹. Besides, in data set [2], the Km is 125 ± 27 µM, the catalytic constant (kcat) came to 0.124 ± 0.007 s⁻¹ and the catalytic efficiency (kcat/Km) is 992 ± 377 M⁻¹ s⁻¹.

In general, IC50 refers to the concentration at which inhibition is half-maximal. The low end stands for greater potency in that assay, the high end for weaker potency in that assay. As a reminder, the Km is the concentration of substrate that gives half-maximal velocity. As a reminder, the kcat is the maximal rate divided by the concentration of active sites. In general, kcat/Km refers to the second-order rate constant that governs catalysis at low substrate concentration.
